According to patent publication US20220372142A1 (IGM BIOSCIENCES, published 2022):

T1: CD20 (UniProt P11836 1-297, limits assumed)
T1 sequence (looked up): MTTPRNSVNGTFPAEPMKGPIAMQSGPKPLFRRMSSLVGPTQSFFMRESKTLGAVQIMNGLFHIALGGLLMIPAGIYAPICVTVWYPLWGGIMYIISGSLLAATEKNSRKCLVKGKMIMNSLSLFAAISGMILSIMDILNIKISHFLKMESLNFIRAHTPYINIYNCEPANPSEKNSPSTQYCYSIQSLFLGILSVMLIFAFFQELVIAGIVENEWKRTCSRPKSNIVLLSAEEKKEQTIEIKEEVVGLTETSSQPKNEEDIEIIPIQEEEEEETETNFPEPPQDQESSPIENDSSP

B1: RTX-IgM V15J (wt) (bispecific antibody)
VH: QVQLQQPGAELVKPGASVKMSCKASGYTFTSYNMHWVKQTPGRGLEWIGAIYPGNGDTSYNQKFKGKATLTADKSSSTAYMQLSSLTSEDSAVYYCARSTYYGGDWYFNVWGAGTTVTVSA
VL: QIVLSQSPAILSASPGEKVTMTCRASSSVSYIHWFQQKPGSSPKPWIYATSNLASGVPVRFSGSGSGTSYSLTISRVEAEDAATYYCQQWTSNPPTFGGGTKLEIKR
chain: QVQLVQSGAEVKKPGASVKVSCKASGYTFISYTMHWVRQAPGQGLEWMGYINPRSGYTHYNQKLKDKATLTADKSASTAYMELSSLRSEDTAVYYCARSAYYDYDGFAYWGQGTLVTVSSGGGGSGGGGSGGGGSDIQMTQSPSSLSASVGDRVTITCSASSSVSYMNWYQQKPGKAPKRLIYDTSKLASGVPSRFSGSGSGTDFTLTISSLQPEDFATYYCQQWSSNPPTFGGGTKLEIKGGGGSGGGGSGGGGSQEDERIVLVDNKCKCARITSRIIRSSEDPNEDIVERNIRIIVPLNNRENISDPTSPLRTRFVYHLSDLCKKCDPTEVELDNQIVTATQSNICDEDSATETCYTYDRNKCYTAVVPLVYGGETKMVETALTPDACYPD
B2: RTX-IgM V15J (N93D) (bispecific antibody)
VH: QVQLQQPGAELVKPGASVKMSCKASGYTFTSYNMHWVKQTPGRGLEWIGAIYPGNGDTSYNQKFKGKATLTADKSSSTAYMQLSSLTSEDSAVYYCARSTYYGGDWYFNVWGAGTTVTVSA
VL: QIVLSQSPAILSASPGEKVTMTCRASSSVSYIHWFQQKPGSSPKPWIYATSNLASGVPVRFSGSGSGTSYSLTISRVEAEDAATYYCQQWTSDPPTFGGGTKLEIKR
chain: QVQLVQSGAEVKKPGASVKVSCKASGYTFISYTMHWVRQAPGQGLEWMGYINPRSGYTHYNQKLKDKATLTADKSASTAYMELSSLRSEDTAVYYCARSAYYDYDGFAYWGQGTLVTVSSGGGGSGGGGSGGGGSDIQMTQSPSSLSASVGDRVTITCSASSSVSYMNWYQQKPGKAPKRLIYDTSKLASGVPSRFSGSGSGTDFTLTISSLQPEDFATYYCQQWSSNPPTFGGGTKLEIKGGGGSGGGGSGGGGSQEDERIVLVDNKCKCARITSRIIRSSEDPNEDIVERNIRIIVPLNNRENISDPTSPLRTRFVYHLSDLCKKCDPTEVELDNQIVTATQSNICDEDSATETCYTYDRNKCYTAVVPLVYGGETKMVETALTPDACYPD
B3: RTX-IgM V15J (N93E) (bispecific antibody)
VH: QVQLQQPGAELVKPGASVKMSCKASGYTFTSYNMHWVKQTPGRGLEWIGAIYPGNGDTSYNQKFKGKATLTADKSSSTAYMQLSSLTSEDSAVYYCARSTYYGGDWYFNVWGAGTTVTVSA
VL: QIVLSQSPAILSASPGEKVTMTCRASSSVSYIHWFQQKPGSSPKPWIYATSNLASGVPVRFSGSGSGTSYSLTISRVEAEDAATYYCQQWTSEPPTFGGGTKLEIKR
chain: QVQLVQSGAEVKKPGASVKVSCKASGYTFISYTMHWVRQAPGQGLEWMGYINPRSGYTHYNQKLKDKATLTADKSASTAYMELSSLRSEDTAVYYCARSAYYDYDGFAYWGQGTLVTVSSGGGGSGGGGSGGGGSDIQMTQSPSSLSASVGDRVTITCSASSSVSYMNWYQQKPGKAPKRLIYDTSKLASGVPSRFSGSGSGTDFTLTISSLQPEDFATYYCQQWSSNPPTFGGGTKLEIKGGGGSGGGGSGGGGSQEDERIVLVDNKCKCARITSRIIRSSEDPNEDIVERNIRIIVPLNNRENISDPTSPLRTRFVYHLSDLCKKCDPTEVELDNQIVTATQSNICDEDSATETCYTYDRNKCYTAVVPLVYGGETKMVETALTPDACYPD
B4: RTX-IgM + J N93R (antibody)
VH: QVQLQQPGAELVKPGASVKMSCKASGYTFTSYNMHWVKQTPGRGLEWIGAIYPGNGDTSYNQKFKGKATLTADKSSSTAYMQLSSLTSEDSAVYYCARSTYYGGDWYFNVWGAGTTVTVSA
VL: QIVLSQSPAILSASPGEKVTMTCRASSSVSYIHWFQQKPGSSPKPWIYATSNLASGVPVRFSGSGSGTSYSLTISRVEAEDAATYYCQQWTSRPPTFGGGTKLEIKR
chain: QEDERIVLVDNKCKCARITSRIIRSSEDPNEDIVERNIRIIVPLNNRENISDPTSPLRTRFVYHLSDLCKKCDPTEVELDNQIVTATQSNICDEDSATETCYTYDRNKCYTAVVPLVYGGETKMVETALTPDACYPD
notes: Pentameric IgM with wild-type J-chain; IgM constant region of the construct not specified
B5: RTX-IgM + J N93K (antibody)
VH: QVQLQQPGAELVKPGASVKMSCKASGYTFTSYNMHWVKQTPGRGLEWIGAIYPGNGDTSYNQKFKGKATLTADKSSSTAYMQLSSLTSEDSAVYYCARSTYYGGDWYFNVWGAGTTVTVSA
VL: QIVLSQSPAILSASPGEKVTMTCRASSSVSYIHWFQQKPGSSPKPWIYATSNLASGVPVRFSGSGSGTSYSLTISRVEAEDAATYYCQQWTSKPPTFGGGTKLEIKR
chain: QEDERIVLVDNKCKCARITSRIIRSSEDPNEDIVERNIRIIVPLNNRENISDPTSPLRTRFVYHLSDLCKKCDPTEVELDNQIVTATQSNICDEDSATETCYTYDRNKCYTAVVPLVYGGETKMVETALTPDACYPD
notes: as for B4
B6: RTX-IgM + J N93A (antibody)
VH: QVQLQQPGAELVKPGASVKMSCKASGYTFTSYNMHWVKQTPGRGLEWIGAIYPGNGDTSYNQKFKGKATLTADKSSSTAYMQLSSLTSEDSAVYYCARSTYYGGDWYFNVWGAGTTVTVSA
VL: QIVLSQSPAILSASPGEKVTMTCRASSSVSYIHWFQQKPGSSPKPWIYATSNLASGVPVRFSGSGSGTSYSLTISRVEAEDAATYYCQQWTSAPPTFGGGTKLEIKR
chain: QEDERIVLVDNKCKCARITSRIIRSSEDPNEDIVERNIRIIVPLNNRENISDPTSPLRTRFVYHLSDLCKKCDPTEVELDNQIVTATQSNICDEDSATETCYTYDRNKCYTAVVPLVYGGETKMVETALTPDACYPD
notes: as for B4

Legend:
[1] = target: T1, CD20; test: cell-based or functional assay
[2] = target: T1, CD20; test: flow cytometry on Ramos cells, anti-human kappa AF647 detection
Protocol: The cells were split every 2-3 days as necessary to maintain the cell density between 0.2-2.0×10⁶ cells/mL. […] The antibody cell mixtures were incubated for 30 minutes on ice in the dark. […] Fluorescent staining data was acquired on FACSCalibur using standard settings and analyzed with FloJo 10. Mean fluorescent intensity (MFI) values were imported into GraphPad Prism, and EC50 or KD values were calculated from the resulting curve fit.

| Binder | TDCC on CA46 cells with CD8+ T cells, EC50 [1] [nM] | TDCC on Ramos cells with CD8+ T cells, % Max. [1] [%] | TDCC on Ramos cells with CD8+ T cells, EC50 [1] [nM] | TDCC on normal B cells with CD8+ T cells, EC50 [1] [nM] | EC50 [2] [nM] |
| --- | --- | --- | --- | --- | --- |
| B1 | 0.014 | 98 | 0.009 | 0.009 | – |
| B2 | – | 60 | 0.722 | – | – |
| B3 | – | 80 | 0.107 | 0.145 | – |
| B4 | – | – | – | – | 0.52 |
| B5 | – | – | – | – | 0.88 |
| B6 | – | – | – | – | 0.69 |
